From patent US20090232801A1

Tests used:
Aβ(1-42) fibrils (human) = assay: fibril pull-down: antibody incubated 20 h at 37 °C with Aβ(1-42) fibrils, centrifuged; SDS-PAGE densitometry of the heavy chain in pellet and supernatant
[1] = target: Aβ(1-42) globulomer (human); assay: dot blot densitometry; reference: Aβ(1-40) monomer
[2] = target: Aβ(1-42) globulomer (human); assay: dot blot, 10 pmol antigen on nitrocellulose, 0.2 µg/ml antibody, densitometry
Aβ(1-40) monomer (human) = assay: as above
[3] = target: Aβ(1-42) monomer, HFIP pretreated (human); assay: as above
[4] = target: Aβ(1-42) globulomer (human); assay: dot blot densitometry; reference: Aβ(1-42) monomer

Chain of Aβ(1-42) globulomer (human) (peptide, as listed by the source): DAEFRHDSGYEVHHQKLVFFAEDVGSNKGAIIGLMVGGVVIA
Chain of Aβ(1-40) monomer (human) (peptide, as listed by the source): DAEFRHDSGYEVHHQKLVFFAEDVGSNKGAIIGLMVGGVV

| Fibril bound Ab fraction (Aβ(1-42) fibrils (human)) [%] | Ratio RD Aβ(1-42) globulomer/RD Aβ(1-40) monomer [1] | Reflective Density (RD) [10 pmol] [2] [RD] | Reflective Density (RD) [10 pmol] (Aβ(1-40) monomer (human)) [RD] | Reflective Density (RD) [10 pmol] [3] [RD] | Ratio RD Aβ(1-42) globulomer/RD Aβ(1-42) monomer [4] | Substance |
| --- | --- | --- | --- | --- | --- | --- |
| 91 | – | – | – | – | – | mMAb 6E10 (Signet Inc. Cat.#9320) (antibody) |
| – | 10 | 1.5 | 0.15 | 3.5 | 0.42 | mouse monoclonal antibody 4G8 |
| 9 | – | – | – | – | – | unspecific antibody IgG2a |
